From US12383631B2, “Immune antigen specific IL-18 immunocytokines and uses thereof” (Bright Peak Therapeutics AG, priority 2022, dated 2025)

What was measured:
[1] = target: T1, human IL-18 binding protein isoform a (IL-18BPa) (Homo sapiens, UniProt O95998); assay: Cellular IL-18 Binding protein resistance assay in NK-92 cells (Example 13); type: cell-based; conditions: NK92 cells, IL-18 analyte 1 nM final, IL-18BPa titrated, 1 ng/ml IL-12; read-out: IC50 IL-18BP-mediated inhibition of IFNγ secretion
T1 sequence (O95998 31-194): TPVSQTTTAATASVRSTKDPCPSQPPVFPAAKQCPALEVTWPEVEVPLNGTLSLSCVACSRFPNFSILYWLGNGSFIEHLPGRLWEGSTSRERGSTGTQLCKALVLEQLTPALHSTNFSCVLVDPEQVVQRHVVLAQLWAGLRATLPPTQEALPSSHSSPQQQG
Experimental: The NK cell line NK-92 derived from a patient with lymphoma (ATCC, Cat #CRL-2407) was cultured in aMEM medium supplemented with 20% FCS-Glutamax, 25 μM B-mercaptoEthanol, and 100 IU/ml of recombinant Human Interleukin-2 (TL-2). On the day of experiment, cells were harvested and washed with aMEM medium without IL-2. After counting, cells were seeded at 100 000 cells/well in a 384 well titer plate and incubated at 37° C./5% CO2. Sixteen 2-fold serial dilutions of Fc fused human IL-18 binding protein isoform a (IL-18BPa; R&D systems, Cat #119-BP) were prepared in aMEM medium-1 ng/ml IL-12 containing 2 nM of each IL-18 variants and were added to the NK-92 cells. Final IL-18 analytes concentration was 1 nM and final IL-18BPa concentrations ranged from to 566 nM down to 17 pM.
After 16-20 h incubation at 37° C./5% CO2, 5 μl of supernatant were carefully transferred to a 384 microwells OPTIplate (Perkin Elmer; Cat #6007270) and Interferon-gamma (IFNγ) levels measured using the Human IFNγ AlphaLISA Assay Kit (Perkin Elmer, Cat #AL217C). Briefly, 10 μl of 2.5× AlphaLISA Anti-IFNγ acceptor beads and biotinylated Antibody Anti-IFNγ mix were added to the 5 μl of NK-92 supernatants and incubated for 1 h at room temperature under shaking. Under subdued light, 2.5 μl of 2× streptavidin (SA) donor beads were pipetted in each well and incubated for 30 min at room temperature under shaking. AlphaLisa signal was then measured on an Enspire plate reader (Perkin Elmer) using 680 and 615 nm as excitation and emission wavelengths respectively. Half maximal inhibitory concentration (IC50) was calculated based on a variable slope, four parameter analysis using GraphPad PRISM software.

[2] = test system: PD-1 positive (transduced) KG-1 cells; assay: IFN gamma secretion assay in PD-1 transduced KG-1 cells (Example 11); type: cell-based, human; conditions: ratio of EC50 in PD-1 positive and parental KG-1 cells
Experimental: The KG-1 cell line was used to generate a PD-1 expressing cell line and furthermore, to measure IFNγ release upon incubation with TL-18 variants and corresponding TL-18 immunocytokines.
PD-1 expressing cell line generation: Briefly, KG-1 cells were transduced using lentiviral particles carrying the human PD-1 gene (PDCD1 NM_005018; Origene, CAT #: RC210364L3V) at a MOI (Multiplicity of Infection) of 30. Spinfection was performed at 1260 g during 90 min at 37° C. in the presence of 5 μg/ml of Polybrene and 10 mM of HEPES in complete culture media (RPMI, 10% FBS, 1% L-Glutamine). Five days after transduction, puromycin at a final concentration of 1 μg/ml was added to select for PD-1 positive cells. For culture maintenance, puromycin concentration was decreased to 0.5 μg/ml. Stable and homogenous expression of PD-1 was verified by surface staining (BD Pharmingen, #557860).
IFNγ release was assessed in PD-1 positive (transduced) KG-1 cells, as well as in the parental PD-1 negative cells. 0.5×10^5 cells were seeded into a 96-well U-bottom plate in culture media (RPMI, 10% FBS, […]) and stimulated with IL-18 variants/ICs for 20-24 h. The test items were diluted to 100 nM in culture medium, followed by 7 10-fold serial dilutions. The lowest concentration assessed was […]. After incubation, IFNγ release was measured using the LEGENDplex custom human mix and match KIT (Biolegend LEGENDplex™ Human IFN-γ Capture Bead B5, 13×#740942, LEGENDplex™ P 1 Essential Immune Response Panel Detection Abs, #740931, LEGENDplex™ Buffer Set A #740368). To this end, cell culture supernatant was collected and diluted 1:1 with Assay Buffer. Fluorescence measurements were done with a Quanteon Flow Cytometer from Acea Biosciences. For analysis, MFI values (median fluorescence intensity) were exported and plotted against concentrations used. The EC50 values (half maximal effective concentration) were calculated based on a variable slope and four parameter analysis using GraphPad PRISM software version 9.

| IC50 [1] | Substance | PD-1^pos/PD-1^neg EC50 ratio [2] |
| --- | --- | --- |
| 781 pM | SEQ ID NO: 1: native IL-18 wild-type sequence [reference compound] | 1.298 |
| 282 pM | SEQ ID NO: 31: IL-18 polypeptide: C38A, C76A, C127A | 1.2 |
